Measured values taken from the supplement of paper PMC9170038.

Tested on: MS2 coat protein
Test: apparent KD of MS2 coat protein; designed switch direction (-1 OFF switch, 1 ON switch): -1; higher = weaker reporter binding
How it was run: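 The apparent KD reported per design is the median over clusters of curve fits to normalised cluster fluorescence. The RNA switches were transcribed on Illumina chips by stalled E. coli RNA polymerase. SNAP-549-labelled MS2 coat protein was titrated from 0.7 or 1.5 nM, doubling up to 3 µM, in Tris-HCl pH 7.5 buffer containing KCl, MgCl2, BSA, DTT, tRNA and Tween-20, with no input, 200 uM small-molecule ligand, or an oligonucleotide input.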

[1] = Eterna round: R95, input ligand: microRNA oligo, concentration not stated
[2] = Eterna round: R95, input ligand: FMN 200 uM
[3] = Eterna round: R95, input ligand: none
[4] = input ligand: microRNA oligo, concentration not stated

Sequence	apparent KD of MS2 coat protein (input ligand: FMN 200 uM)	apparent KD of MS2 coat protein (input ligand: none)	apparent KD of MS2 coat protein [4]	also measured
UCAUGGUAGCAGGAUAUGCUUGUAAUUUUUUAUGCAGAAGGGCUUACAUGAGGAUCACCCAUGUGUUAGGUCUA [JR_E6_Sub069] (puzzle: Exclusion 6)	–	–	–	apparent KD of MS2 coat protein [1]: 45.2 nM
GAGAAGGUAGGAUAUACGAAAAAAAAGGGUAGAAAAAAAACACAUGAGGAUCACCCAUGUAGAAGGACCAAAAG [salish99_ex2_r3_035] (puzzle: Exclusion 2)	–	–	–	apparent KD of MS2 coat protein [2]: 68.9 nM; apparent KD of MS2 coat protein [1]: 24.6 nM; apparent KD of MS2 coat protein [3]: 28 nM
ACUAGUCAUGAGGAUAUGCGAGCCAACGGGCGAGCAGAAGGCGUGACAUGAGGAUCACCCAUGUCAGUUCGCGA [eternacac ex6r4 sub31] (Eterna round: R97, puzzle: Exclusion 6)	21.9 nM	17.4 nM	–	–
AUUUAAUUUAAUAAGAUCACAUGAGGAUCACCCAUGUAUAUAUAGGAUAUCAGCUCGAAUAGAGCUGAGAAGGAUAUAUACUAU [ExNG3/7-B4] (Eterna round: R96, puzzle: Exclusion NG 3)	–	–	276 nM	–
UUAAAUCAUGUAGGAUAUGCGUGGCGAAGCUAUGCAGAAGGACAUGAGGAUCACCCAUGUUCUUCCGUCUGCGUACAGACGGAA [Mat - Exclusion NG 1 - Mod of JL - D38] (Eterna round: R96, puzzle: Exclusion NG 1)	284 nM	40.8 nM	33.7 nM	–
ACGCGUGAAGGAUAUACGCGGGCCCAAGCGGAUCACACCGCACAUGAGGAUCACCCAUGUAGAAGGUCACAAAA [r4x2dt1] (Eterna round: R97, puzzle: Exclusion 2)	169 nM	23.5 nM	–	–
UUCCUACAUGAGGAUCACCCAUGUCAGGAUAUCUCCUCGUCGCCAAUGGGCGACGAAUAGAGAAGGGACAGGAA [Rerizaatra] (puzzle: Exclusion 1)	–	–	–	apparent KD of MS2 coat protein [1]: 13.1 nM
CGGGAGGGACAAGCUGUUUGCACGUCUGGUAGUGAUGCAACAUGAGGAUCACCCAUGUAUAGGGUGUGAGAGGAUGG [JR_SV3TOV2_Sub050] (puzzle: Sensor v3, turn-off variant 2)	–	–	–	apparent KD of MS2 coat protein [2]: 47.1 nM; apparent KD of MS2 coat protein [1]: 89.6 nM; apparent KD of MS2 coat protein [3]: 107 nM
AGCUGUGGCCGAGGAUAUCACUACCGAUGGAAAACCAUCGGAACUCCACAUGAGGAUCACCCAUGUGAGAAGGCGGUCUCAGCA [Eli eng2 - 029] (Eterna round: R96, puzzle: Exclusion NG 2)	24 nM	15.7 nM	11.2 nM	–
CUGCUCCGUGUAGGAUAUGCAUACUCCCACUAUGCAGAAGGACAUGAGGAUCACCCAUGUAUGUUAUUAUCACGUGUAGCGUAC [Design 16] (Eterna round: R96, puzzle: Exclusion NG 1)	–	–	21.7 nM	–
GGGUUUGGAGGAUAUACAUGAGGAUCACCCAUGUACCCGGGCCCUAUUGGGUUUGGGUGUAGAAGGCCGGGCCC [-33.9, -31.3 kcal, A 19%, 5bbis,5b] (Eterna round: R97, puzzle: Exclusion 3)	20.4 nM	17.7 nM	–	–
GUGCAACAUGAGGAUCACCCAUGUCAGGAUAUGCGAAUUUCAUCAAAAGAUGAAAUUUGCAGAAGGGACAGCAC [Omei Ex1 A16] (Eterna round: R97, puzzle: Exclusion 1)	32 nM	24.4 nM	–	–
GCCGUCGUUGUGAGGAUAUGCCUAUGGAUACGUAGGCAGAAGGCACAUGAGGAUCACCCAUGUCCAAAGACGGC [JL-BMX4-4.28 Eli mod] (Eterna round: R97, puzzle: Brourd's mod of Exclusion 4)	1000 nM	101 nM	–	–
UAUACUAGAUAGGAUAUACUUUAUUUUUUUUUCGUAGAAGGAUCUACAUGAGGAUCACCCAUGUUAACAGCAGU [JR_E6_Sub008] (puzzle: Exclusion 6)	–	–	–	apparent KD of MS2 coat protein [1]: 55.1 nM
GUCAGGUAUCGAGGAUAUGUGAAAGGAAGUGUAACAGAAGGCGAGGGCUUGACAUGAGGAUCACCCAUGUGAAGUGAUUCGAAG [PowerStrip EXNG 1.22] (Eterna round: R96, puzzle: Exclusion NG 1)	51.8 nM	62.9 nM	52.5 nM	–
CUGUGUCCGCAGGAUAUGUCAUCCUGAAGGAUCACAGAAGGGCGGACAUGAGGAUCACCCAUGUGAGCCAAAGA [EX6 A.11] (Eterna round: R97, puzzle: Exclusion 6)	16.7 nM	17.9 nM	–	–

Sequence	apparent KD of MS2 coat protein (input ligand: FMN 200 uM)	apparent KD of MS2 coat protein (input ligand: none)	apparent KD of MS2 coat protein [4]	also measured
CAAUUCCGAGGAUAUACAUGAGGAUCACCCAUGUCGGGCCUCAGCGUUUAGCGCGUAAGUAGAAGGUGGGUUUC [JL Riri mod 6] (puzzle: Exclusion 3)	–	–	–	apparent KD of MS2 coat protein [1]: 29.5 nM
CCAUAUAACUGAGGAUAUCAUCGCAACUGACGUUGAGAAGGCAGACAUGAGGAUCACCCAUGUGAUUUCUCAAUAUUAUACAUC [Prohibition 80 - Jieux - Exclusion NG 1] (Eterna round: R96, puzzle: Exclusion NG 1)	245 nM	61.1 nM	31.2 nM	–
AGAUAACAUGAGGAUCACCCAUGUGAGGAUAUUUACUCAAGAGCUUCGGCUCUCAGGUGAAGAAGGCGCAAUGA [EX1 #55] (Eterna round: R97, puzzle: Exclusion 1)	44.7 nM	45.7 nM	–	–
CGGCAAUCCUAGGAUAUGCUAGACGAUAGUCUAGCAGAAGGAGGAACAUGAGGAUCACCCAUGUGUCCUAGCCG [Mat - Exclusion 6 - Eli Mod - D14] (Eterna round: R97, puzzle: Exclusion 6)	17.8 nM	14.4 nM	–	–
AGAUCCUGAGUCAGGAUAUAGAGGCGGUAGCCUGGCUAGAAGGGACAUGAGGAUCACCCAUGUGGGUUCGAGCC [Isonus] (puzzle: Brourd's mod of Exclusion 4)	–	–	–	apparent KD of MS2 coat protein [1]: 16.7 nM
UGAGUGCUGCGAGGAUAUACAUGAGGAUCACCCAUGUAAAUGUGUGAGGCUUUGCCUCACACAAUGUAGAAGGCGCAGUACUCU [JL ENG2 1.01] (Eterna round: R96, puzzle: Exclusion NG 2)	–	–	9.17 nM	–
AAAAGGCAGGGAGGAUAUGCUUACCUGGGUCGUCUUCGAACAUGAGGAUCACCCAUGUAGUCGACGCAGAAGGCCCUCAAAGCC [Mat - Exclusion NG 2 - Mod of JL - D59] (Eterna round: R96, puzzle: Exclusion NG 2)	42.7 nM	21.7 nM	25.6 nM	–
GUUUACAAGCUAAGAUCCUACAUGAGGAUCACCCAUGUGGUCCGGUGACGUGAGUCACCGGACUUAGCUCGUCUUGU [salish99_S_TOV1_R5_001] (Eterna round: R97, puzzle: Sensor, turn-off variant 1)	86.8 nM	90.4 nM	–	–
GCACUCUGCUGGCAGUCGGCUUGUCUUAGAAGGAUAGAUACAUGAGGAUCACCCAUGUUUCGGGUGUCAAUUCUAGC [JR_Sensorv2_tov2_Sub1308] (Eterna round: R96, puzzle: Sensor v2, turn-off variant 2)	43.9 nM	42.6 nM	34.5 nM	–
AAGAAACAUGAGGAUCACCCAUGUGAGGAUAUGGCCCGCCCGGCGUGAGCUGGUUUAAUCAGAAGGCACAAAGG [salish99_ex1_r4_014] (Eterna round: R97, puzzle: Exclusion 1)	44.8 nM	38.1 nM	–	–
AGAGAGUCAGGAUAUCGGUGUGCGAGGAGAGGAGAGAGAGACGAGAAGGGACAUGAGGAUCACCCAUGUAGGUG [JR_Exclusion4)Sub019] (puzzle: Exclusion 4)	–	–	–	apparent KD of MS2 coat protein [2]: 366 nM; apparent KD of MS2 coat protein [1]: 389 nM; apparent KD of MS2 coat protein [3]: 318 nM
AUUUAAUUUAAUAAGAUCACAUGAGGAUCACCCAUGUAUAUAUAGGAUAUCAGCUCGAUUAGAGCUGAGAAGGAUAUAUACUAU [ExNG3/7-B1] (Eterna round: R96, puzzle: Exclusion NG 3)	–	–	422 nM	–
UAUGGUUAAGUCAGGAUAUACGUACAGAUAUCUGAGUAGAAGGGACAUGAGGAUCACCCAUGUAUGGUAGUGUU [Ex4 #53] (Eterna round: R97, puzzle: Brourd's mod of Exclusion 4)	187 nM	64.8 nM	–	–
AUUUAAUUUAAUAAGAUCACAUGAGGAUCACCCAUGUAUAUAUAGGAUAUCAGCUCGAUUAGAGCUGAGAAGGAUAUAUACAUG [ExNG3/8-A1] (Eterna round: R96, puzzle: Exclusion NG 3)	48.9 nM	38.1 nM	21.6 nM	–
CUCCGACAUGAGGAUCACCCAUGUGAGGAUAUGUAGCCCAGUUGGACAACUCGAGGUAGCAGAAGGCACAUGCC [Eternabot (L2) Solution 64] (Eterna round: R97, puzzle: Exclusion 1)	57.6 nM	27 nM	–	–
CAGUACUGAGGAUAUACAUGAGGAUCACCCAUGUCUUCCAGCUAGGAAACUAGCAAAUGUAGAAGGCAGUACUG [Salish 065 m9] (Eterna round: R97, puzzle: Exclusion 3)	639 nM	71.8 nM	–	–
